Measured values reported in paper PMC1474074.
Like-named read-outs stand apart in the source and are kept apart here.

Tests used:
streptavidin [1] = target: T1, streptavidin (UniProt P22629 25-183); assay: EMSA
streptavidin [2] = target: T1, streptavidin; assay: EMSA; remark: listed apart in the source

T1 sequence (P22629 25-183): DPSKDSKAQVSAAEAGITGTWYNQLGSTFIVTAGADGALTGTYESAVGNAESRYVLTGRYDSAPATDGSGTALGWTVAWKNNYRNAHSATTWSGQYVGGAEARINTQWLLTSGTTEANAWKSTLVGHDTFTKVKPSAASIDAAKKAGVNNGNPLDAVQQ

| Binder | binding result (streptavidin [1]) | binding result (streptavidin [2]) |
| --- | --- | --- |
| B-siRNA (anti-lamin A/C) (dsRNA, 5'-biotin on sense strand) RNA 1: GGAACUGGACUUCCAGAAGAACAUCUA RNA 2: UAGAUGUUCUUCUGGAAGUCCAGUUCC | binds | – |
| BSS-siRNA (anti-lamin A/C) (dsRNA, 5'-biotin via C6 S-S disulfide linker on sense strand) RNA 1: GGAACUGGACUUCCAGAAGAACAUCUA RNA 2: UAGAUGUUCUUCUGGAAGUCCAGUUCC | – | binds |
